Substrate in data set [1]: O=P(O)(O)OC[C@H]1O[C@H](OP(=O)(O)O)[C@H](O)[C@@H](O)[C@@H]1O
The experiment in a line: purified protein. In kind it is biochemical, Arabidopsis thaliana. Conditions: 50 mM TEAB pH 7.0, 2 mM MgCl2, Glc-1P as substrate, 25°C, catalytic intermediate, Figure 3 legend prints 4.3, varied: cofactor.

Substrate in data set [2]: O=P(O)(O)O[C@H]1O[C@H](CO)[C@@H](O)[C@H](O)[C@H]1O
The experiment in a line: purified protein. In kind it is biochemical, Arabidopsis thaliana. Conditions: 50 mM TEAB pH 7.0, 2 mM MgCl2, 10 µM Glc-1,6bP, 25°C.

B1: PGM3 (Arabidopsis thaliana) (protein)
chain: MVFKVSTVSTSPIDGQKPGTSGLRKKVKVFKQPNYLENFVQATFNALTAEKVKGATLVVSGDGRYYSKDAVQIIIKMAAANGVRRVWVGKNTLLSTPAVSAVIRERSGADGSKATGAFILTASHNPGGPTEDFGIKYNMENGGPAPESITDKIYENTKTIKEYPIAQDLPNVDISAVGVTSFEGPEGKFDVEVFDPADDYVKLMKSIFDFEAIRKLLSSPKFTFCYDALHGVAGAYAHRIFVEELGAQESALLNCTPKEDFGGGHPDPNLTYAKELVARMGLGKSDTGGEPPEFGAAADGDADRNMILGKRFFVTPSDSVAIIAANAIGAIPYFSSGLKGVARSMPTSAALDVVAKSLNLKFFEVPTGWKFFGNLMDAGMCSVCGEESFGTGSDHIREKDGIWAVLAWMSILAHKNKGNIDGNAKLVSVEDIVRQHWATYGRHYYTRYDYENVDAGKAKELMEHLVKLQSSIPEVNKIVKGIRSDVASVASADEFEYKDPVDGSISKHQGIRYLFEDGSRLVFRLSGTGSEGATIRLYIEQYEKDASKTGRESQEALSPLVDLALKLSKMEEFTGRSAPTVIT
notes: forward primer encodes (tag)HHHHHG-MVFKVSTVS
In general, Km refers to the concentration of substrate that gives half-maximal velocity. For the protein B1, the Km in “purified protein [1]” came out at 4.38 µM; in the data set “purified protein [2]” it was 90 µM.
